These are literature values, as cited in paper PMC4599702.

The target of one data set is p300 KIX (Homo sapiens) (UniProt Q09472). Kind of data set: microscale thermophoresis. Background: Microscale thermophoresis detects binding through changes in fluorescence in a small temperature gradient.
The target in the next data set is CBP KIX (Homo sapiens) (UniProt Q92793).
Chain of UniProt Q92793 (Q92793 584-669): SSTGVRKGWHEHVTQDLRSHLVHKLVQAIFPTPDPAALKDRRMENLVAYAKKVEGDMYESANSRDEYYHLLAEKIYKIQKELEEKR

Chain of UniProt Q09472 (Q09472 563-648): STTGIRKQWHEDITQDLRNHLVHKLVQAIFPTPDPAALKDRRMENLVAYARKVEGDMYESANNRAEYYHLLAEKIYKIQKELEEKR

Turning to Myb (from UniProt P10242), the Kd (usually the free concentration of one partner at which half of the binding sites on the other are occupied at equilibrium, for simple one-to-one binding) in the data set with p300 KIX (Homo sapiens) was 2.5 µM; with CBP KIX (Homo sapiens) it was 0.65 µM.
